Experimental data taken from publication PMC12246617, “Cryo-EM structures reveal the PP2A–B55α and Eya3 interaction that can be disrupted by a peptide inhibitor” (The Journal of Biological Chemistry, 2025).

T1: His-hB55 (human PP2A regulatory subunit B55α), P63151
T1 chain: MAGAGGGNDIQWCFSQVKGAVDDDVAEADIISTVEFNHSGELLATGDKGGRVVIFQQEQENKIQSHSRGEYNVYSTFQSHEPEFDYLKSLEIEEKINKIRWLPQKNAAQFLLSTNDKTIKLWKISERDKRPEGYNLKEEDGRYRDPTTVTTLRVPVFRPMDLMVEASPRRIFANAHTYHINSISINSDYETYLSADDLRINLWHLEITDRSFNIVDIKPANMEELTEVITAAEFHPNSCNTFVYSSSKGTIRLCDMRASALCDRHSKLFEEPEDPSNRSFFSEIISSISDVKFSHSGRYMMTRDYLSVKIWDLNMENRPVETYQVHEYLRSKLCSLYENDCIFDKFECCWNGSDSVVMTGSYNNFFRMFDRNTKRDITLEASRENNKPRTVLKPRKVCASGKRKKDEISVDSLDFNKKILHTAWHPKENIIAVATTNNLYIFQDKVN


Columns and labels:
[1] = target: B55i peptide (computationally engineered inhibitory peptide of B55); assay: fluorescence polarisation; His-B55 serially diluted in 50 mM Tris pH 8, 100 mM NaCl, 1 mM DTT, incubated with 3 nM FITC-B55i at room temperature for 10 min
[2] = target: T1, His-hB55 (human PP2A regulatory subunit …); assay: MST; conditions: chain shown with the change;

Kd ([2]; parent: 1.04 µM) [µM]	Binder	further results
–	His-hB55 (human PP2A regulatory subunit B55α) (natural protein) MAGAGGGNDIQWCFSQVKGAVDDDVAEADIISTVEFNHSGELLATGDKGGRVVIFQQEQENKIQSHSRGEYNVYSTFQSHEPEFDYLKSLEIEEKINKIRWLPQKNAAQFLLSTNDKTIKLWKISERDKRPEGYNLKEEDGRYRDPTTVTTLRVPVFRPMDLMVEASPRRIFANAHTYHINSISINSDYETYLSADDLRINLWHLEITDRSFNIVDIKPANMEELTEVITAAEFHPNSCNTFVYSSSKGTIRLCDMRASALCDRHSKLFEEPEDPSNRSFFSEIISSISDVKFSHSGRYMMTRDYLSVKIWDLNMENRPVETYQVHEYLRSKLCSLYENDCIFDKFECCWNGSDSVVMTGSYNNFFRMFDRNTKRDITLEASRENNKPRTVLKPRKVCASGKRKKDEISVDSLDFNKKILHTAWHPKENIIAVATTNNLYIFQDKVN	Kd [1]: 67.3 nM
4.87	mouse Eya3 (mEya3), wild type, P97480 Y77A (protein) MEEEQDLPEQPVKKAKMQEPREQTLSQVNNPDASDEKPETSSLASNLSMSEEIMTCTDYIPRSSNDYTSQMYSAKPAAHILSVPVSETTYPGQTQYQTLQQSQPYAVYPQATQTYGLPPFASSTNASLIPTSSAIANIPAAAVASISNQDYPTYTILGQNQYQACYPSSSFGVTGQTNSDAETTTLAATTYQTEKPSAMVPAPATQRLPSDSSASPPLSQTTPNKDADDQARKNMTVKNRGKRKADASSSQDSELERVFLWDLDETIIIFHSLLTGSYAQKYGKDPTVVIGSGLTMEEMIFEVADTHLFFNDLEECDQVHVEDVASDDNGQDLSNYSFSTDGFSGSGGSGSHGSSVGVQGGVDWMRKLAFRYRKVREIYDKHKSNVGGLLSPQRKEALQRLRAEIEVLTDSWLGTALKSLLLIQSRKNCANVLITTTQLVPALAKVLLYGLGEIFPIENIYSATKIGKESCFERIVSRFGKKVTYVVIGDGRDEEIAAKQHNMPFWRITNHGDLVSLHQALELDFL	–
–	mouse Eya3 (mEya3), wild type, P97480 H79A (protein) MEEEQDLPEQPVKKAKMQEPREQTLSQVNNPDASDEKPETSSLASNLSMSEEIMTCTDYIPRSSNDYTSQMYSAKPYAAILSVPVSETTYPGQTQYQTLQQSQPYAVYPQATQTYGLPPFASSTNASLIPTSSAIANIPAAAVASISNQDYPTYTILGQNQYQACYPSSSFGVTGQTNSDAETTTLAATTYQTEKPSAMVPAPATQRLPSDSSASPPLSQTTPNKDADDQARKNMTVKNRGKRKADASSSQDSELERVFLWDLDETIIIFHSLLTGSYAQKYGKDPTVVIGSGLTMEEMIFEVADTHLFFNDLEECDQVHVEDVASDDNGQDLSNYSFSTDGFSGSGGSGSHGSSVGVQGGVDWMRKLAFRYRKVREIYDKHKSNVGGLLSPQRKEALQRLRAEIEVLTDSWLGTALKSLLLIQSRKNCANVLITTTQLVPALAKVLLYGLGEIFPIENIYSATKIGKESCFERIVSRFGKKVTYVVIGDGRDEEIAAKQHNMPFWRITNHGDLVSLHQALELDFL	Kd ([2]; parent: 1.04): 9.16 µM
4.24	mouse Eya3 (mEya3), wild type, P97480 K75A (protein) MEEEQDLPEQPVKKAKMQEPREQTLSQVNNPDASDEKPETSSLASNLSMSEEIMTCTDYIPRSSNDYTSQMYSAAPYAHILSVPVSETTYPGQTQYQTLQQSQPYAVYPQATQTYGLPPFASSTNASLIPTSSAIANIPAAAVASISNQDYPTYTILGQNQYQACYPSSSFGVTGQTNSDAETTTLAATTYQTEKPSAMVPAPATQRLPSDSSASPPLSQTTPNKDADDQARKNMTVKNRGKRKADASSSQDSELERVFLWDLDETIIIFHSLLTGSYAQKYGKDPTVVIGSGLTMEEMIFEVADTHLFFNDLEECDQVHVEDVASDDNGQDLSNYSFSTDGFSGSGGSGSHGSSVGVQGGVDWMRKLAFRYRKVREIYDKHKSNVGGLLSPQRKEALQRLRAEIEVLTDSWLGTALKSLLLIQSRKNCANVLITTTQLVPALAKVLLYGLGEIFPIENIYSATKIGKESCFERIVSRFGKKVTYVVIGDGRDEEIAAKQHNMPFWRITNHGDLVSLHQALELDFL	–
